Laboratory results published in IntAct's records for PubMed 31515488.

B1: Pre-B-cell leukemia transcription factor 4 (Homo sapiens), Q9BYU1 (parent)
chain: MAAPPRPAPSPPAPRRLDTSDVLQQIMAITDQSLDEAQARKHALNCHRMKPALFSVLCEIKEKTVVSIRGIQDEDPPDAQLLRLDNMLLAEGVCRPEKRGRGGAVARAGTATPGGCPNDNSIEHSDYRAKLSQIRQIYHSELEKYEQACREFTTHVTNLLQEQSRMRPVSPKEIERMVGAIHGKFSAIQMQLKQSTCEAVMTLRSRLLDARRKRRNFSKQATEVLNEYFYSHLNNPYPSEEAKEELARKGGLTISQVSNWFGNKRIRYKKNMGKFQEEATIYTGKTAVDTTEVGVPGNHASCLSTPSSGSSGPFPLPSAGDAFLTLRTLASLQPPPGGGCLQSQAQGSWQGATPQPATASPAGDPGSINSSTSN
B2: Protein BANP (Homo sapiens), Q8N9N5 (parent)
chain: MMSEHDLADVVQIAVEDLSPDHPVVLENHVVTDEDEPALKRQRLEINCQDPSIKTICLRLDSIEAKLQALEATCKSLEEKLDLVTNKQHSPIQVPMVAGSPLGATQTCNKVRCVVPQTTVILNNDRQNAIVAKMEDPLSNRAPDSLENVISNAVPGRRQNTIVVKVPGQEDSHHEDGESGSEASDSVSSCGQAGSQSIGSNVTLITLNSEEDYPNGTWLGDENNPEMRVRCAIIPSDMLHISTNCRTAEKMALTLLDYLFHREVQAVSNLSGQGKHGKKQLDPLTIYGIRCHLFYKFGITESDWYRIKQSIDSKCRTAWRRKQRGQSLAVKSFSRRTPNSSSYCPSEPMMSTPPPASELPQPQPQPQALHYALANAQQVQIHQIGEDGQVQVGHLHIAQVPQGEQVQITQDSEGNLQIHHVGQDGQLLEATRIPCLLAPSVFKASSGQVLQGAQLIAVASSDPAAAGVDGSPLQGSDIQVQYVQLAPVSDHTAGAQTAEALQPTLQPEMQLEHGAIQIQ
partner: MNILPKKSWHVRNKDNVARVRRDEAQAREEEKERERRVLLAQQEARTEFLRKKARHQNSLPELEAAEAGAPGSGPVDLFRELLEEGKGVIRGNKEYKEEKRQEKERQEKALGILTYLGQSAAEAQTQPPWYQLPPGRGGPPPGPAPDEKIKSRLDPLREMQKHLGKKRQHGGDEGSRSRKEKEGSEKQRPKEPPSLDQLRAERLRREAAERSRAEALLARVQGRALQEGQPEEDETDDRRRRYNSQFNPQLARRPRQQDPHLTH
B3: Putative pre-mRNA-splicing factor ATP-dependent RNA helicase DHX32 (Homo sapiens), Q7L7V1 (parent)
chain: MEEEGLECPNSSSEKRYFPESLDSSDGDEEEVLACEDLELNPFDGLPYSSRYYKLLKEREDLPIWKEKYSFMENLLQNQIVIVSGDAKCGKSAQVPQWCAEYCLSIHYQHGGVICTQVHKQTVVQLALRVADEMDVNIGHEVGYVIPFENCCTNETILRYCTDDMLQREMMSNPFLGSYGVIILDDIHERSIATDVLLGLLKDVLLARPELKLIINSSPHLISKLNSYYGNVPVIEVKNKHPVEVVYLSEAQKDSFESILRLIFEIHHSGEKGDIVVFLACEQDIEKVCETVYQGSNLNPDLGELVVVPLYPKEKCSLFKPLDETEKRCQVYQRRVVLTTSSGEFLIWSNSVRFVIDVGVERRKVYNPRIRANSLVMQPISQSQAEIRKQILGSSSSGKFFCLYTEEFASKDMTPLKPAEMQEANLTSMVLFMKRIDIAGLGHCDFMNRPAPESLMQALEDLDYLAALDNDGNLSEFGIIMSEFPLDPQLSKSILASCEFDCVDEVLTIAAMVTAPNCFSHVPHGAEEAALTCWKTFLHPEGDHFTLISIYKAYQDTTLNSSSEYCVEKWCRDYFLNCSALRMADVIRAELLEIIKRIELPYAEPAFGSKENTLNIKKALLSGYFMQIARDVDGSGNYLMLTHKQVAQLHPLSGYSITKKMPEWVLFHKFSISENNYIRITSEISPELFMQLVPQYYFSNLPPSESKDILQQVVDHLSPVSTMNKEQQMCETCPETEQRCTLQ
partner: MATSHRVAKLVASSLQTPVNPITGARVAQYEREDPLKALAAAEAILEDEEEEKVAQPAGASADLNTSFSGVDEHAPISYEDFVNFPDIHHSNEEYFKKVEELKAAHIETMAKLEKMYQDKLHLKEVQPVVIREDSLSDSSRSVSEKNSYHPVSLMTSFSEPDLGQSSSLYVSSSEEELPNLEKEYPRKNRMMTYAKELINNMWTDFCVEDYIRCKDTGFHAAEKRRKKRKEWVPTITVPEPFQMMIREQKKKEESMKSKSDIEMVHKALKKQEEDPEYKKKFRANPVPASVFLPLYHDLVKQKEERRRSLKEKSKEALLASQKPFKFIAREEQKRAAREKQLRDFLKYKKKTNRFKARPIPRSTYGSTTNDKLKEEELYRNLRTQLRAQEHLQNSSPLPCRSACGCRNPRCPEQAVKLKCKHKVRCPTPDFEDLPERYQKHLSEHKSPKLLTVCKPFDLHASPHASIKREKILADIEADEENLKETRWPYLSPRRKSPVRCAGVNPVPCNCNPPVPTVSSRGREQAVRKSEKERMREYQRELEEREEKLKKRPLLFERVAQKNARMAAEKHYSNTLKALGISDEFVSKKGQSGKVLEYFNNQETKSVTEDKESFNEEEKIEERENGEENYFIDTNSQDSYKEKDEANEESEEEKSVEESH

Variants of: B1
Conditions: with tfp11_human TFIP11, Q9UBB9
Sequence of tfp11_human TFIP11, Q9UBB9 (Q9UBB9 whole entry): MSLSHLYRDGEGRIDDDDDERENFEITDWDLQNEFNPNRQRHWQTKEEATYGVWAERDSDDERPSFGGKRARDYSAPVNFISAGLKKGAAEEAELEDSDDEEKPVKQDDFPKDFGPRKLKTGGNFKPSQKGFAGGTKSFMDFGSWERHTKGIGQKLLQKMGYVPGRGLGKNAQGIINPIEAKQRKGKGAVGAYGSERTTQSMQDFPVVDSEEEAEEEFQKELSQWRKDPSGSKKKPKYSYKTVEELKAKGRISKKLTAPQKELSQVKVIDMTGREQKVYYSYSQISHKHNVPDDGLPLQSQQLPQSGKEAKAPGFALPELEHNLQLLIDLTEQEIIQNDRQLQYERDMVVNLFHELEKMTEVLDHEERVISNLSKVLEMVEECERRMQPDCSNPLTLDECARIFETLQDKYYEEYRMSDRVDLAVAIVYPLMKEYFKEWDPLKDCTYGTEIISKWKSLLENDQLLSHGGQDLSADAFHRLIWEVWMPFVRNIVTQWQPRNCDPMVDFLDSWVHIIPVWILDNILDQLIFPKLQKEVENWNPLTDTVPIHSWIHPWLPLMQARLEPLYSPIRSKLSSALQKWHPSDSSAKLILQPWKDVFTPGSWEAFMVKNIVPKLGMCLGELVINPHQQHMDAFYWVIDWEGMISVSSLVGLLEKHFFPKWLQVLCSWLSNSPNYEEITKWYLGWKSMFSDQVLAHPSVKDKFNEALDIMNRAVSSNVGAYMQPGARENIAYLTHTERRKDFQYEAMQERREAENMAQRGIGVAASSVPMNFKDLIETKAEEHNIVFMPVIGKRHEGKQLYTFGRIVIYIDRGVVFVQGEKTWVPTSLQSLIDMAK

effect of a mutation on the interaction | Variant
with no effect | MAAPPRPAPSPPAPRRLDTSDVLQQIMAITDQSLDEAQARKHALNCHRMKPALFSVLCEIKEKTVVSIRGIQDEDPPDAQLLRLDNMLLAEGVCRPEKRGRGGAVARAGTATPGGCPNDNSIEHSDYRAKLSQIRQIYHSELEKYEQACREFTTHVTNLLQEQSRMRPVSPKEIERMVGAIHGKFSAIQMQLKQSTCEAVMTLRSRLLDARRKRRNFSKQATEVLNEYFYSHLNNPYPSEEAKEELARKGGLTISQVSNWFGNKRIRYKKNMGKFQEEATIYMGKTAVDTTEVGVPGNHASCLSTPSSGSSGPFPLPSAGDAFLTLRTLASLQPPPGGGCLQSQAQGSWQGATPQPATASPAGDPGSINSSTSN [T283M]
with no effect | MAAPPRPAPSPPAPRRLDTSDVLQQIMAITDQSLDEAQARKHALNCHRMKPALFSVLCEIKEKTVVSIRGIQDEDPPDAQLLRLDNMLLAEGVCRPEKRGRGGAVARAGTATPGGCPNDNSIEHSDYRAKLSQIRQIYHSELEKYEQACREFTMHVTNLLQEQSRMRPVSPKEIERMVGAIHGKFSAIQMQLKQSTCEAVMTLRSRLLDARRKRRNFSKQATEVLNEYFYSHLNNPYPSEEAKEELARKGGLTISQVSNWFGNKRIRYKKNMGKFQEEATIYTGKTAVDTTEVGVPGNHASCLSTPSSGSSGPFPLPSAGDAFLTLRTLASLQPPPGGGCLQSQAQGSWQGATPQPATASPAGDPGSINSSTSN [T154M]
with no effect | MAAPPRPAPSPPAPRRLDTSDVLQQIMAITDQSLDEAQARKHALNCHRMKPALFSVLCEIKEKTVVSIRGIQDEDPPDAQLLRLDNMLLAEGVCRPEKRGRGGAVARAGTATPGGCPNDNSIEHSDYRAKLSQIRQIYHSELEKYEQACREFTTHVTNLLQEQSRMRPVSPKEIERMVGAIHGKFSAIQMQLKQSTCEAVMTLRSRLLDARRKRRNFSKQATEVLNEYFYSHLNNPYPSEEAKEELARKGGLTISQVSNWFGNKRIRYKKNMGKFQEEATIYTGKTAVDTTEVGVPGNHASCLSTPSSGSSGPFPLPSAGDAFLTLQTLASLQPPPGGGCLQSQAQGSWQGATPQPATASPAGDPGSINSSTSN [R327Q]

Variants of: B2
Conditions: with leng1_human LENG1, Q96BZ8

effect of a mutation on the interaction | Variant
with no effect | MMSEHDLADVVQIAVEDLSPDHPVVLENHVVTDEDEPALKRQRLEINCQDPSIKTICLRLDSIEAKLQALEATCKSLEEKLDLVTNKQHSPIQVPMVAGSPLGATQTCNKVRCVVPQTTVILNNDRQNAIVAKMEDPLSNRAPDSLENVISNAVPGRRQNTIVVKVPGQEDSHHEDGESGSEASDSVSSCGQAGSQSIGSNVTLITLNSEEDYPNGTWLGDENNPEMRVRCAIIPSDMLHISTNCRTAEKMALTLLDYLFHREVQAVSNLSGQGKHGKKQLDPLTIYGIRCHLFYKFGITESDWYRIKQSIDSKCRTAWRRKQRGQSLAVKSFSRRTPNSSSYCPSESMMSTPPPASELPQPQPQPQALHYALANAQQVQIHQIGEDGQVQVGHLHIAQVPQGEQVQITQDSEGNLQIHHVGQDGQLLEATRIPCLLAPSVFKASSGQVLQGAQLIAVASSDPAAAGVDGSPLQGSDIQVQYVQLAPVSDHTAGAQTAEALQPTLQPEMQLEHGAIQIQ [P348S]

Variants of: B3
Conditions: with FAM161A

effect of a mutation on the interaction | Variant
with no effect | D301A
